# B1: 抗SARS-CoV-2全人源单克隆抗体ZWC12 (antibody, V domains shown)
# VH: EVQLVESGGALVQPGGSLRLSCAASGFTFANYAMSWVRQAPGKGLEWVSSMTGSSIDSYYADSVKGRFTISRDNSRNTLYLQMNSLRAEDTAVYYCAKGELLWFGDLLHNWFDPWGRGTLVTVSS
# VL: DIVMTQSPATLSVSPGERATLSCRASQSVSTNLAWYQQKPGQAPRLLIHGASTRATGLPARFSGSGSGTEFTLTISSLQSEDFAVYFCQQYDSWPGTFGPGTKVDIKR
# Legend:
# Omicron株刺突蛋白(S蛋白)，在假病毒表面 = Omicron株刺突蛋白(S蛋白)，在假病毒表面 (SARS-CoV-2 Omicron株 (B.1.1.529)); assay: cell-based or functional assay
# Alpha株刺突蛋白(S蛋白)，在假病毒表面 = Alpha株刺突蛋白(S蛋白)，在假病毒表面 (SARS-CoV-2 Alpha株 (B.1.1.7)); assay: cell-based or functional assay
# [1] = biological target: Beta株刺突蛋白(S蛋白)，在假病毒/真病毒表面 (SARS-CoV-2 Beta株 (B.1.351)); assay: cell-based or functional assay
# Gamma株刺突蛋白(S蛋白)，在假病毒表面 = Gamma株刺突蛋白(S蛋白)，在假病毒表面 (SARS-CoV-2 Gamma株 (P.1)); assay: cell-based or functional assay
# [2] = biological target: Delta株刺突蛋白(S蛋白)，在假病毒/真病毒表面 (SARS-CoV-2 Delta株 (B.1.617.2)); assay: cell-based or functional assay
# SARS-CoV-2 WT S-ECD蛋白 = SARS-CoV-2 WT S-ECD蛋白 (SARS-CoV-2, UniProt P0DTC2 14-1213)
binder,measurement,setting,value
B1,"假病毒中和 EC50 (luciferase, HEK293T)",Omicron株刺突蛋白(S蛋白)，在假病毒表面,0.093 µg/mL
same,"假病毒中和 EC50 (luciferase, HEK293T)",Alpha株刺突蛋白(S蛋白)，在假病毒表面,0.124 µg/mL
same,"假病毒中和 EC50 (luciferase, HEK293T)",[1],0.162 µg/mL
same,"真病毒中和 EC50 (Vero E6, crystal violet)",[1],721 µg/mL
same,"假病毒中和 EC50 (luciferase, HEK293T)",Gamma株刺突蛋白(S蛋白)，在假病毒表面,0.136 µg/mL
same,"假病毒中和 EC50 (luciferase, HEK293T)",[2],0.411 µg/mL
same,"真病毒中和 EC50 (Vero E6, crystal violet)",[2],7.97 µg/mL
same,Kd,SARS-CoV-2 WT S-ECD蛋白,1.75 nM

# Reference: patent publication CN114044821A (INST MILITARY MEDICINE ACADEMY MILITARY SCIENCES PLA, dated 2022)
